Source: article PMC8809517, “Cofactor-independent RNA editing by a synthetic S-type PPR protein”
Residue numbers refer to the chain shown, from its start.

What was measured:
Assay in all cases: high-throughput RNA pulldown from lysate on Ni-NTA beads; HRP: 50 mM Tris pH 8, 150 mM NaCl, 1 mM beta-mercaptoethanol, 50 ug/ml BSA, 3 ug/ml yeast RNA, 0.5% heparin; ITC and FP: Tris pH 8, 200 mM KCl, 5% glycerol; MST: 50 mM Tris pH 8, 200 mM NaCl, 1 mM DTT, BSA, heparin, 0.05% Tween 20
Conditions in all cases: tags: N-terminal His-eGFP
[1] = molecular target: T1, GFP-9S library array, motif 4 ND N98Y;D124S (synthetic construct, N98Y;D124S)
T1 chain: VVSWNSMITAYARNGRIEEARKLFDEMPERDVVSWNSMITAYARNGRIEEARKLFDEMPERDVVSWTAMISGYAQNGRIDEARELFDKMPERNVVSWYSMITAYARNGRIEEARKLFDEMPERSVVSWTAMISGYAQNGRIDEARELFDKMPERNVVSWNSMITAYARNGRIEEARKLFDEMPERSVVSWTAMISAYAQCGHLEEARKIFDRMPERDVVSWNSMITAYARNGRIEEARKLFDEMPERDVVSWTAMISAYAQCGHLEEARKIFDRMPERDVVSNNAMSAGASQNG

[2] = molecular target: T2, GFP-9S library array, motif 4 ND N98P;D124F (synthetic construct, N98P;D124F)
T2 chain: T1 chain with Y98P, S124F

[3] = molecular target: T3, GFP-9S library array, motif 4 ND N98S;D124P (synthetic construct, N98S;D124P)
T3 chain: T1 chain with Y98S, S124P

[4] = molecular target: T4, GFP-9S library array, motif 4 ND N98V;D124K (synthetic construct, N98V;D124K)
T4 chain: T1 chain with Y98V, S124K

[5] = molecular target: T5, GFP-9S library array, motif 4 ND N98Y;D124I (synthetic construct, N98Y;D124I)
T5 chain: T1 chain with S124I

Binder	Kd ([1]; label: 5' Cy5) [nM]	Kd ([2]; label: 5' Cy5) [nM]	Kd ([3]; label: 5' Cy5) [nM]	Kd ([4]; label: 5' Cy5) [nM]	Kd ([5]; label: 5' Cy5) [nM]	Kd ([1]; label: 5' IRDye 800CW) [nM]	Kd ([2]; label: 5' IRDye 800CW) [nM]	Kd ([3]; label: 5' IRDye 800CW) [nM]	Kd ([4]; label: 5' IRDye 800CW) [nM]	Kd ([5]; label: 5' IRDye 800CW) [nM]
AUUACACGUGA (ssRNA) [Cy5-rpoA]	168	134	122	97.1	109					
AUUAGACGUGA (ssRNA) [Cy5-rpoA-G]	224	125	121	91.4	112					
AUUAAACGUGA (ssRNA) [IR-rpoA-A]						911	245	224	146	347
AUUAUACGUGA (ssRNA) [IR-rpoA-U]						134	290	253	128	340
